The source of these data is paper PMC8770954.

Test in all cases: SPR; imaging SPR (IBIS MX96); IgG immobilised on a carboxymethyldextran sensor (CMD200M) by carbodiimide chemistry with a Continuous Flow Microspotter, printed at 300 and 150 nM; soluble receptor as analyte from 20 uM, 1:3 over 8 points; 5 min association and 5 min dissociation; equilibrium KD (Scrubber 2)
Assay [1] concerns the target Rh7B2 IgG1 (rhesusized variant of human 7B2) (rhesus macaque (Macaca mulatta)).
Assay [2] deals with RhDH827 IgG1 (rhesusized variant of human DH827) (rhesus macaque (Macaca mulatta)).
Assay [3] deals with RhDH677.3 IgG1 (rhesusized variant of human DH677.3) (rhesus macaque (Macaca mulatta)).
Sequence of RhDH677.3 IgG1 (rhesusized variant of human DH677.3) (rhesus macaque (Macaca mulatta)) (heavy, as listed by the source, chain 1 of 2): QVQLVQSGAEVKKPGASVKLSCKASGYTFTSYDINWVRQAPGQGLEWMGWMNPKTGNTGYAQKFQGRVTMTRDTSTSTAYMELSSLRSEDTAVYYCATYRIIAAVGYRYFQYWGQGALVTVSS
Sequence of RhDH677.3 IgG1 (rhesusized variant of human DH677.3) (rhesus macaque (Macaca mulatta)) (light, as listed by the source, chain 2 of 2): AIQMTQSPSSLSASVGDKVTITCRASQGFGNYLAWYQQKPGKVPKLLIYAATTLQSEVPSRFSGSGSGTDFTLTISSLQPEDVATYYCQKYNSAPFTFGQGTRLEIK

Sequence of human FcγRIIIa (F158) (P08637 17-208): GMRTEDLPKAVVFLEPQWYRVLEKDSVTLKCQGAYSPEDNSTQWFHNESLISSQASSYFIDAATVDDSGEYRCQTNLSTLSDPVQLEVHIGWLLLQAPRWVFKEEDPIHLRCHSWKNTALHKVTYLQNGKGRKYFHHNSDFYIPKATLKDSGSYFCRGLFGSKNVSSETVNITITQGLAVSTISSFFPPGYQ
Sequence of Rh7B2 IgG1 (rhesusized variant of human 7B2) (rhesus macaque (Macaca mulatta)) (heavy, as listed by the source, chain 1 of 2): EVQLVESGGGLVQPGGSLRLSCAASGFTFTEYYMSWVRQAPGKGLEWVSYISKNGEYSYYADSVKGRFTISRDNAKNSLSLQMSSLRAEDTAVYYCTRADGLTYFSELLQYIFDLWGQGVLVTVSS
Sequence of Rh7B2 IgG1 (rhesusized variant of human 7B2) (rhesus macaque (Macaca mulatta)) (light, as listed by the source, chain 2 of 2): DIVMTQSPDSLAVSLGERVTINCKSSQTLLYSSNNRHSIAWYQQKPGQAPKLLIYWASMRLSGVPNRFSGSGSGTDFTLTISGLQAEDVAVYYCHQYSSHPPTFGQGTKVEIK
Sequence of RhDH827 IgG1 (rhesusized variant of human DH827) (rhesus macaque (Macaca mulatta)) (heavy, as listed by the source, chain 1 of 2): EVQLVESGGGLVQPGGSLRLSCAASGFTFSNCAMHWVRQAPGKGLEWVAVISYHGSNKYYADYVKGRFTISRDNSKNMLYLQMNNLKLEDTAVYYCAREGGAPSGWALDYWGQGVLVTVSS
Sequence of RhDH827 IgG1 (rhesusized variant of human DH827) (rhesus macaque (Macaca mulatta)) (light, as listed by the source, chain 2 of 2): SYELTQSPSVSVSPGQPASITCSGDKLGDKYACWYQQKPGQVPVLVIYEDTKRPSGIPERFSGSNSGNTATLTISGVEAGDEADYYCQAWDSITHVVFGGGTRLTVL

Regarding “human FcγRIIIa (F158) (from UniProt P08637 17-208) (receptor)”, the equilibrium dissociation constant (Kd) in assay [1] worked out at 3.8 µM; in assay [2] it was 4.1 µM; in assay [3] it was 3.8 µM.

rhesus macaque FcγRIIa-4 (receptor): the Kd in assay [1] amounted to 7.7 µM; in assay [2], 6.9 µM; in assay [3], 6.2 µM.

Turning to “human FcγRIIa (H131) (from UniProt P12318 34-217) (receptor)”, the Kd in assay [1] was found to be 4.4 µM; in assay [2], 3.7 µM.

rhesus macaque FcγRIIb-1 (receptor): the dissociation constant Kd in assay [1], in assay [2] and in assay [3] was 3.7 µM throughout.

Regarding rhesus macaque FcγRIIa-1 (receptor), the Kd in assay [1] was found to be 6 µM; in assay [2] it was 5.7 µM; in assay [3], 4.7 µM.

“human FcγRIIb (from UniProt P31994 43-217) (receptor)”: the Kd in assay [1] is 8.5 µM; in assay [3] it was 7.9 µM.

Turning to rhesus macaque FcγRIIa-2 (receptor), the Kd in assay [1] turned out to be 5.5 µM; in assay [2] it was 5.5 µM; in assay [3], 4.9 µM.
